# Measurements taken from patent US20230192877A1 (NATIONAL INSTITUTES OF BIOMEDICAL INOVATION HEALTH AND …, published 2023).
# Positions count from the first letter of the chain named.
# T1: TNFR2 monomeric antigen (UniProt P20333 23-257, limits assumed)
# T1 construct: extracellular domain
# T1 sequence (looked up): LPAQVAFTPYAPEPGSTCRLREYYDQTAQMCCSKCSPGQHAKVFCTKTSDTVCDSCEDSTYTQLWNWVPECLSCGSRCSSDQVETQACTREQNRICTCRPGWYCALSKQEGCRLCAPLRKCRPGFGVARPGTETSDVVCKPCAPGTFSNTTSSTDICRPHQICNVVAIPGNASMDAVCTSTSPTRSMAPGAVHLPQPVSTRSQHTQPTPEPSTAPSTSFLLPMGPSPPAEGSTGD
# T2: tumor necrosis factor receptor 2 (TNFR2) expressed on cells (human, UniProt P20333 23-461)
# T2 construct: whole, on cells; also called human TNFR2; TNFRSF1B
# T2 sequence (looked up): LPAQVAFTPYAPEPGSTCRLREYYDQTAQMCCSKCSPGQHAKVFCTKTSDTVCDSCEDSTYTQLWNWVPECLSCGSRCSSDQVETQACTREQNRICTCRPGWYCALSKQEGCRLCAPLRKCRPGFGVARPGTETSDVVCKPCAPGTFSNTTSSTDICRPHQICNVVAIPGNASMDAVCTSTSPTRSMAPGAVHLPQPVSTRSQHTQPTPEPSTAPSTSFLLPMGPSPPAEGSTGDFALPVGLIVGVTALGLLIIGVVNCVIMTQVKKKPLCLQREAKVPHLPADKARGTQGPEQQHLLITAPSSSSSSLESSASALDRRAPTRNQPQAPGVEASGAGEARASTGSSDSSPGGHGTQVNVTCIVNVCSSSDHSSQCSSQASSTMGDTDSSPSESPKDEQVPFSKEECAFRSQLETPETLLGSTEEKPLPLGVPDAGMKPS
# B1: Bp96-92 epitope region-bridging biparatopic antibody (bispecific antibody, V domains shown)
# VH 1: EVQLQQSGAELVKPGASVKLSCTPSGFNIKDTYMHWVKQRPEQGLEWIGRIDPANGYTEYDPKFQDKATITADTSSNTAYLQLSSLTSEDTAVYYCADTQLYYWGQGTTLTVSS
# VL 1: QIVLTQSPAIMSASLGERVTMTCTASSSVSSTYLHWYQQKPGSSPKLWIYSTSNLASGVPARFSGSGSGTSYSLTISNMEAEDAATYYCHQYHRSPLTFGAGTKLELKR
# VH 2: KVQLQQSGAELVKPGASVKLSCKASGYTFTESIIHWVKQRSGQGLEWIGWFYPGSDNINYNEKFKDKATLTADKSSSTVYMELTRLTSEDSAVYFCASHEGPYVYFDYWGQGTTLTVSS
# VL 2: DIVMTQSHKFMSTSVGDRVSITCKASQDVSTAVAWYQQKPGQSPKLLIYWTSTRHTGVPDRFTGSGSGTDYTLTISSVQAEDLALYYCQHHYSTPYTFGGGTKLEIQR
# notes: N side Fab joined by split-intein trans-splicing to hinge and hole Fc; C side VH-CH1-hinge-knob Fc plus light chain; Human IgG1 constant regions
# B2: Bp109-96 epitope region-bridging biparatopic antibody (bispecific antibody, V domains shown)
# VH 1: QVQLKESGPGLVAPSQSLSITCTVSGFSLTVYGVNWVRQPPGKGLEWLGMIWGDGSTAYNSALKSRLTITKDNSKTQVFLKMNSLQTDDTARYYCARDGRRYALDYWGQGTSVTVSS
# VL 1: DIVLTQSPTSLAVSLGQRATISCRASESVDSYGDSFLHWYQQKPGQPPILLIYRASNLDSGIPARFSGSGSRTDFTLTINPVEADDVATYYCQQSNEDPYTFGGGTKLEINR
# VH 2: B1 VH 1
# VL 2: B1 VL 1
# notes: as for B1
# B3: Bp45-94 epitope region-bridging biparatopic antibody (bispecific antibody, V domains shown)
# VH 1: EVQLQQSGPEMEKPGASVKISCKASGYSFTGYNMNWVKQSIGKSLEWIGKIDPYYGGTDYNLRFKDKATLTVDKSSSTAYMHLSRLTSEDSAVYYCAREPNYGSNDWYFDVWGAGTTVTVSS
# VL 1: DIQVTQTTSSLSASLGDRVTISCRASQDIDNYLNWYQQRPDGTVKLLIYYTSILHSGVPSRFSGSGSRTDFSLTISSLEEEDFATYFCQQGNTLPWTFGGGTKLEFKR
# VH 2: QVQLQQSGAELARPGTSVKLSCKASGYTFTSYWMQWVKQTPGQGLEWIGAIYPGDGDSRYIQKFKGKATLTADKSSSTAYMQLSSLASEDSAVYYCARDGNYYAMDYWGQGTSVTVSS
# VL 2: B1 VL 1 with M21I, N78S, L97P
# notes: as for B1
# B4: Bp109-94 epitope region-bridging biparatopic antibody (bispecific antibody, V domains shown)
# VH 1: B2 VH 1
# VL 1: B2 VL 1
# VH 2: B3 VH 2
# VL 2: B1 VL 1 with M21I, N78S, L97P
# notes: as for B1
# B5: Bp109-45 epitope region-bridging biparatopic antibody (bispecific antibody, V domains shown)
# VH 1: B2 VH 1
# VL 1: B2 VL 1
# VH 2: B3 VH 1
# VL 2: B3 VL 1
# notes: as for B1
# B6: Bp45-92 epitope region-bridging biparatopic antibody (bispecific antibody, V domains shown)
# VH 1: B3 VH 1
# VL 1: B3 VL 1
# VH 2: B1 VH 2
# VL 2: B1 VL 2
# notes: The N side Fab (VH-CH1 plus light chain) is joined by Cfa DnaE split-intein trans-splicing to the hinge and hole Fc; The C side is VH-CH1-hinge-knob Fc plus light chain; Human IgG1 constant regions
# Target: T1, TNFR2 monomeric antigen
# Assay: SPR (BIAcore T200), antibody captured with human antibody capture kit, monomeric antigen as analyte
# Experimental: Binding kinetics analysis and evaluation of each antibody to a monomeric antigen and dimeric antigen were conducted through surface plasmon resonance (SPR) using BIAcore T200 system (GE Healthcare). Monomeric and dimeric antigens were prepared. The affinity of each antibody to the monomeric and dimeric antigens was evaluated to study the presence/absence of intramolecular bridging activity. The SPR technology is based on measuring the index of refraction near the surface of a gold coated biosensor chip. A change in the index of refraction indicates a change in mass on the surface due to an interaction between an immobilized antibody and a monomeric or dimeric antigen infused into the solution. The mass increases when a molecule binds to an antibody immobilized on the surface, whereas the mass decreases when an analyte dissociates from an immobilized antibody. Analysis of a biparatopic antibody and the original monoclonal antibody by SPR can not only evaluate the performance of each antibody, but also see the effect of multivalent bond.
# The monomeric and dimeric antigens were prepared as shown in the schematic diagram of FIG. 8. First, an etanercept (Pfizer), which is an Fc fusion protein of a TNFR2 extracellular region, was prepared, and a TNFR2 antigen molecule was obtained by enzymatic degradation and reductive re-oxidation reaction. An antibody was immobilized on a sensor chip using a human antibody capture kit according to the protocol by using a BIAcore T200 system (GE Healthcare). The interaction was analyzed by using the two types of antigens described above as analytes.
row,Binder,binding result
1,B1,binds
2,B2,binds
3,B3,binds
4,B4,binds
5,B5,binds

# Target: T2, tumor necrosis factor receptor 2 …
# Assay: flow cytometry on TNFR2-expressing Ramos-Blue cells, anti-human IgG-PE
# Experimental: Subsequently, binding affinity of each antibody was evaluated using Ramos-Blue reporter cells expressing TNFR2. Each antibody was added at concentrations of 0.01, 0.1, 1, 10, 100, 1000, 10000, and 100000 ng/mL to the TNFR2-Ramos-Blue cells used in a reporter assay, and the cells were incubated for 1 hour on ice. After centrifugation for 5 minutes at 1200 rpm, the supernatant was removed. After washing once with a FACS buffer, anti-human IgG-PE was added to each well. The samples were left standing for 30 minutes away from light on ice. After centrifugation for 5 minutes at 1200 rpm, the supernatant was removed. After washing once with a FACS buffer, fluorescence was analyzed with a flow cytometer (FCM). The mean value of fluorescence intensity was used as a value corresponding to the amount of binding. Experiments were independently conducted twice under the same condition.
row,Binder,binding result
1,B1,binds
2,B2,binds
3,B3,binds
4,B4,binds
5,B6,binds
6,B5,binds
